Measurements as given in patent publication US20130171217A1, “ENZYMATIC PERACID GENERATION FOR USE IN SKIN CARE PRODUCTS” (E I DU PONT DE NEMOURS AND COMPANY, priority 2010, published 2013).
Where “and” joins values, the source holds several entries; their conditions need not be identical. Equal entries are not always repeated.

How the values were obtained:
[1] = Two-step treatment of hair tresses, color loss ΔE; settings: for Color loss ΔE: 0.75 M H2O2, 1 M TA; for ΔE of color loss: 2500 μg/mL
Protocol: After every fourth cycle the tresses were dried under air and color measurements were made using X-RITE® SP64 spectrophotometer (X-Rite, Grandville, Mich.) with 4 mm port. Color numbers were measured at D65/10° from reflectance, according to CIELAB76. Hair tresses (all 4 replicates) were placed under a card paper with punched out holes, making sure that the background was not visible. The port-hole of the spectrophotometer was centered on the hole to scan the hair sample underneath. The tress-bundle was turned over and placed under the card and an additional measurement was made. Average L*, a*, b* (color according to CIELAB76) values were recorded.
ΔE of color loss was calculated according to the following formula:
ΔE=√{square root over (((L1*−L0)̂2+(a1*−a0)̂2+(b1*−b0)̂2))}{square root over (((L1*−L0)̂2+(a1*−a0)̂2+(b1*−b0)̂2))}{square root over (((L1*−L0)̂2+(a1*−a0)̂2+(b1*−b0)̂2))}
L1*, a1* and b1* are L*, a* and b* values for a sample tress after treatment, L0*, a0* and b0* are L*, a* and b* values for untreated hair

[2] = One-step procedure on hair tresses, tress tensile strength; settings: 10 μg/mL HC1121, pH 6.6, 50 mM phosphate, 8 cycles
[3] = as above; settings: for hair tensile strength: pH 6.6, 10 μg/mL enzyme
Source text: COM-TEN® Tensile Tester 95-VD (Com-Ten Industries, Pinellas Park, Fla.), fitted with a 100 lb. (˜45.4 kg) load-cell was used for tensile tests. In order to reduce sample slippage, 5 mm wide strips of industrial grade VELCRO® (Velcro USA, Manchester, N.H.) were attached to the inside edges of the clamps. Before testing the CALIBRATION was set to “off”, FORCE UNITS were set to “grams” and the distance between the clamps was adjusted to 3 cm. The test sample was soaked in water for 30 seconds. Excess moisture was removed by gentle absorption on a paper towel, leaving enough moisture in hair for it to qualify as being at 100% humidity level. The glued edges of the test sample were clamped at both upper and lower clamps in such a way that the VELCRO® strips held the hair just below the glue. Tester speed was set to ˜2.5 inches by adjusting the speed control knob. With the Force meter in RUN mode, TARE was set to ZERO to set the starting PEAK FORCE to 0. To start the test the DIRECTION toggle switch was pressed to UP position. At the conclusion of the test, when the sample failed, the DIRECTION switch was moved to STOP and the peak force was recorded. The hair was cut off along the edge of the clamps at both lower and upper clamps. The clamps were opened and the stubs were removed, dried in air and weighed. The difference in original sample weight and combined weights of the stubs was the weight of the hair undergoing tensile elongation, and this quantity was used to calculate the tensile strength.
Tensile Strength (N/mg hair)=Peak force (Newtons)/(Initial sample weight−weight of stubs)
The hair tresses in these examples were cut from the stock medium brown hair swatches that were custom made by International Hair Importers (Glendale, N.Y.). Each hair tress was glued at one end, and cut at 5 mm width and 4 cm long (excluding the glued portion), with 100+/−20 mg net hair weight. For each test condition, triplicates of hair tresses were used. In the one-step procedure, each hair tress was placed in a clean plastic weighing tray (VWR, Cat. #12577-053), then 1 mL of the perhydrolase HC1121 solution in a buffer was applied to the hair tress, and was rubbed into the hair tress with an applicator. Then calculated amount of triacetin and 30% H2O2 were applied onto each hair tress and rubbed into the hair tress which gave 200 mM triacetin and 100 mM H2O2. The hair tress sat in this reaction mixture for 30 min, before being washed thoroughly with tap water followed by paper towel dry. This completed a 30 min treatment cycle. The treatment cycle was repeated 16 times. Hair tress became lighter-colored and weakened during the treatment. After final rinse and air-drying, tensile strength tests as described in Example 25 were conducted on each hair tress to quantify hair weakening. In addition, L*, a*, b* color measurements were taken for each hair sample to quantify hair color loss, and L*, a*, b* color measurements were also taken for untreated hair as a reference for ΔE color difference calculations. ΔE was calculated in the standard way as ΔE=((L*−L*ref)^2+(a*−a*ref)^2+(b*−b*ref)^2)^0.5. […] At pH 6, when 30 μg/mL HC1121 was used which gave 0.3 μg/mg hair E/H ratio, the tensile strength of treated hair tress reduced to 1.9 N/mg hair, approaching 1.5 N/mg hair, the benchmark strength of hair treated with NAIR® cream for 5 min. At pH 7, when 30 μg/mL HC1121 was used, the tensile strength of treated hair tress was 0.3 N/mg hair, much less than the 1.5 N/mg hair benchmark. Therefore, proper concentration of enzyme at proper pH could weaken hair effectively. The measured hair color loss for treated hair tresses correlated well with the weakening of hair: the greater hair weakening, the greater hair color loss. […]

[4] = 200 mM TA/200 mM H2O2, 24 hr/cycle
[5] = 10 μg/mL HC1121, pH 6.6, 50 mM phosphate, 200 mM TA/100 mM H2O2, 24 hr/cycle, 8 cycles
[6] = 10 μg/mL HC1121, pH 6.6, 50 mM phosphate, 200 mM TA/200 mM H2O2, 24 hr/cycle, 8 cycles
[7] = 10 μg/mL HC1121, pH 6.6, 50 mM phosphate, 200 mM TA/300 mM H2O2, 24 hr/cycle, 8 cycles
[8] = 10 μg/mL HC1121, pH 6.6, 50 mM phosphate, 200 mM TA/500 mM H2O2, 24 hr/cycle, 8 cycles
[9] = 10 μg/mL HC1121, pH 6.6, 50 mM phosphate, 500 mM TA/500 mM H2O2, 24 hr/cycle, 8 cycles
[10] = one-step, 30 μg/mL enzyme, pH 6, 30 min × 16, listed as HC1121
[11] = one-step, 30 μg/mL enzyme, pH 7, 30 min × 16, listed as HC1121
[12] = one-step, pH 6.6, 50 mM buffer, 30 min/cycle X 16 cycles, SLES wash each cycle
[13] = one-step, pH 6.6, 50 mM buffer, 24 hr/cycle X 7 cycles, SLES wash each cycle
[14] = one-step, pH 6.6, 100 mM buffer, 30 min/cycle X 16 cycles, SLES wash each cycle

B1: C277S-HC263: C277S variant of Thermotoga maritima perhydrolase fused via a flexible linker to hair-binding domain HC263 (protein)
chain: MAFFDLPLEELKKYRPERYEEKDFDEFWEETLAESEKFPLDPVFERMESHLKTVEAYDVTFSGYRGQRIKGWLLVPKLEEEKLPCVVQYIGYNGGRGFPHDWLFWPSMGYICFVMDTRGQGSGWLKGDTPDYPEGPVDPQYPGFMTRGILDPRTYYYRRVFTDAVRAVEAAASFPQVDQERIVIAGGSQGGGIALAVSALSKKAKALLCDVPFLCHFRRAVQLVDTHPYAEITNFLKTHRDKEEIVFRTLSYFDGVNFAARAKIPALFSVGLMDNISPPSTVFAAYNYYAGPKEIRIYPYNNHEGGGSFQAVEQVKFLKKLFEKGGPGSGGAGSPGSAGGPGSPSAQSQLPDKHSGLHERAPQRYGPEPEPEPEPIPEPPKEAPVVIEKPKPKPKPKPKPPAHDHKNQKETHQRHAAGSGGGGSPHHHHHH
In the case of B1, the “Color loss ΔE” value ([1]; 750 μg/mL (E/H 3), 40 min/cycle) is reported as 8, the “Color loss ΔE” value ([1]; 1500 μg/mL (E/H 5), 20 min/cycle) is reported as 7 and the “Color loss ΔE” value ([1]; 1750 μg/mL (E/H 7), 40 min/cycle) is reported as 10. For the same molecule, the “Color loss ΔE” value ([1]; 2500 μg/mL (E/H 10), 20 min/cycle) was 10, the “Color loss ΔE” value ([1]; 2500 μg/mL (E/H 10), 40 min/cycle) was 9 and the “ΔE of color loss” value ([1]; 4 cycles) was 4. For the same molecule, the “ΔE of color loss” value ([1]; 8 cycles) was 6, the “ΔE of color loss” value ([1]; 12 cycles) was 8 and the “ΔE of color loss” value ([1]; 16 cycles) was 11. The “Strength N/mg Hair, replicate1” value [2, 4] was 1.04 N/mg Hair, the “Strength N/mg Hair, replicate2” value [2, 4] was 0.57 N/mg Hair and the “Strength N/mg Hair, replicate2” value ([2]; 500 mM TA/500 mM H2O2, 24 hr/cycle) was 0.55 N/mg Hair. For the same molecule, the “Strength N/mg Hair, average” value [3, 5] was 1.19 N/mg Hair, the “Strength N/mg Hair, replicate1” value [3, 5] was 1.08 N/mg Hair and the “Strength N/mg Hair, replicate2” value [3, 5] was 1.40 N/mg Hair. The “Strength N/mg Hair, replicate3” value [3, 5] was 1.09 N/mg Hair, the “Strength N/mg Hair, average” value [3, 6] was 0.86 N/mg Hair and the “Strength N/mg Hair, replicate3” value [3, 6] was 0.99 N/mg Hair. The “Strength N/mg Hair, average” value [3, 7] was 0.55 N/mg Hair, the “Strength N/mg Hair, replicate1” value [3, 7] was 0.58 N/mg Hair and the “Strength N/mg Hair, replicate2” value [3, 7] was 0.50 N/mg Hair. The “Strength N/mg Hair, replicate3” value [3, 7] was 0.57 N/mg Hair, the “Strength N/mg Hair, average” value [3, 8] was 0.45 N/mg Hair and the “Strength N/mg Hair, replicate1” value [3, 8] was 0.39 N/mg Hair. The “Strength N/mg Hair, replicate2” value [3, 8] was 0.38 N/mg Hair, the “Strength N/mg Hair, replicate3” value [3, 8] was 0.58 N/mg Hair and the “Strength N/mg Hair, average” value [3, 9] was 0.53 N/mg Hair. The “Strength N/mg Hair, replicate1” value [3, 9] was 0.53 N/mg Hair, the “Strength N/mg Hair, replicate3” value [3, 9] was 0.49 N/mg Hair and the “Strength, replicates 1-3” value ([3]; one-step, 5 μg/mL enzyme, pH 6, 200 mM triacetin, 100 mM H2O2, 30 min × 16, listed as HC1121) was 2.89 N/mg Hair and 3.16 N/mg Hair and 3.03 N/mg Hair. For the same molecule, the “Strength, average” value ([3]; one-step, 5 μg/mL enzyme, pH 6, 30 min × 16) was 3.03 N/mg Hair, the “Strength, average” value ([3]; one-step, 15 μg/mL enzyme, pH 6, 30 min × 16) was 2.95 N/mg Hair and the “Strength, replicates 1-3” value ([3]; one-step, 15 μg/mL enzyme, pH 6, 30 min × 16, listed as HC1121) was 3.58 N/mg Hair and 2.54 N/mg Hair and 2.72 N/mg Hair. The “Strength, average” value [3, 10] was 1.9 N/mg Hair and 1.86 N/mg Hair, the “Strength, replicates 1-3” value [3, 10] was 1.77 N/mg Hair and 1.86 N/mg Hair and 1.95 N/mg Hair and the “Strength, average” value [3, 11] was 0.3 N/mg Hair and 0.32 N/mg Hair. The “Strength, replicates 1-3” value [3, 11] was 0.31 N/mg Hair and 0.33 N/mg Hair (2×), the hair tensile strength ([3]; one-step, 200 mM triacetin, 100 mM H2O2, 8 cycles of 24 hr) was 1.2 N/mg hair and the hair tensile strength ([3]; one-step, H2O2 over 300 mM, 8 cycles of 24 hr) was “about 0.5 N/mg hair”. For the same molecule, the “Strength N/mg Hair, average” value [3, 12] was 0.65 N/mg Hair, the “Strength N/mg Hair, replicate1” value [3, 12] was 0.59 N/mg Hair and the “Strength N/mg Hair, replicate2” value [3, 12] was 0.50 N/mg Hair. For the same molecule, the “Strength N/mg Hair, replicate3” value [3, 12] was 0.85 N/mg Hair, the “Strength N/mg Hair, average” value [3, 13] was 0.82 N/mg Hair and the “Strength N/mg Hair, replicate1” value [3, 13] was 0.86 N/mg Hair. For the same molecule, the “Strength N/mg Hair, replicate2” value [3, 13] was 0.94 N/mg Hair, the “Strength N/mg Hair, replicate3” value [3, 13] was 0.66 N/mg Hair and the “Strength N/mg Hair, average” value [3, 14] was 0.30 N/mg Hair. For the same molecule, the “Strength N/mg Hair, replicate1” value [3, 14] was 0.22 N/mg Hair, the “Strength N/mg Hair, replicate2” value [3, 14] was 0.34 N/mg Hair and the “Strength N/mg Hair, replicate3” value [3, 14] was 0.35 N/mg Hair.
